In patent US20230285582A1 (published 2023) one finds EC50 data, which are given here for 4 molecules.

First the molecules themselves.
T1: cynomolgus monkey (Macaca fascicularis) TfR1 (cynomolgus monkey (Macaca fascicularis), UniProt Q5RDH6 89-760 (Pongo abelii entry), limits assumed)
T1 construct: also called cTfR1; cyTfR1
T1 chain: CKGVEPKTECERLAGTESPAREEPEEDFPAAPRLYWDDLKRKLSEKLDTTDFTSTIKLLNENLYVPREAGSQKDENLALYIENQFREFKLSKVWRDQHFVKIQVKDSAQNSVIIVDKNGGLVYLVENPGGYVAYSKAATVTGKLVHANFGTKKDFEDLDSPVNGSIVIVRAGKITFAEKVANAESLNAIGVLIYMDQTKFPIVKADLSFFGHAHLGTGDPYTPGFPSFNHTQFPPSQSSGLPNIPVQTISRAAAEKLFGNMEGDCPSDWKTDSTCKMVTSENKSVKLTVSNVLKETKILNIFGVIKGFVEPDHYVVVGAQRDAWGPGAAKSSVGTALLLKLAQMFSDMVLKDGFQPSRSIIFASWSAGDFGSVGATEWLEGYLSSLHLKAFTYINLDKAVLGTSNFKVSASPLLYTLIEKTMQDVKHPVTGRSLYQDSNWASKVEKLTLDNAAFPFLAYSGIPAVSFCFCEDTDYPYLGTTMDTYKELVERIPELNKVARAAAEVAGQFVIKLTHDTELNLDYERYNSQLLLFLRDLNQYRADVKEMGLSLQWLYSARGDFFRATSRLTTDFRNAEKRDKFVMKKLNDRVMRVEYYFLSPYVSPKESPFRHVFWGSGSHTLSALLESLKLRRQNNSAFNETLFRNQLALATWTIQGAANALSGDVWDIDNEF

B1: conjugate of humanized anti-TfR Fab 5H12 VH5 (C33D)/Vk4 with DMPK-targeting oligonucleotide ASO300 (Fab, V domains shown)
VH: QVQLVQSGAEVKKPGASVKVSCKASGYSFTDYDINWVRQAPGQGLEWMGWIYPGSGNTRYSERFKGRVTITRDTSASTAYMELSSLRSEDTAVYYCAREDYYPYHGMDYWGQGTLVTVSS
VL: DIVMTQSPDSLAVSLGERATINCRASESVDGYDNSFMHWYQQKPGQPPKLLIFRASNLESGVPDRFSGSGSGTDFTLTISSLQAEDVAVYYCQQSSEDPWTFGQGTKLEIKR
modifications: ASO300 oligonucleotide attached through a cleavable Val-Cit linker (Formula (C)); residue and chain not stated
notes: also called 5H12 (VH5-C33D/Vk4) conjugate; DMPK oligo conjugate
B2: conjugate of humanized anti-TfR Fab 5H12 VH5 (C33Y)/Vk4 with DMPK-targeting oligonucleotide ASO300 (Fab, V domains shown)
VH: B1 VH with D33Y
VL: B1 VL
modifications: ASO300 oligonucleotide attached through a cleavable Val-Cit linker (Formula (C)); residue and chain not stated
notes: also called 5H12 (VH5-C33Y/Vk4) conjugate; DMPK oligo conjugate
B3: conjugate of humanized anti-TfR Fab 3A4 VH3 (N54T)/Vk4 with DMPK-targeting oligonucleotide ASO300 (Fab, V domains shown)
VH: EVQLVQSGSELKKPGASVKVSCTASGFNIKDDYMYWVRQPPGKGLEWIGWIDPETGDTEYASKFQDRVTVTADTSTNTAYMELSSLRSEDTAVYYCTLWLRRGLDYWGQGTLVTVSS
VL: DIVMTQSPLSLPVTPGEPASISCRSSKSLLHSNGYTYLFWFQQRPGQSPRLLIYRMSNLASGVPDRFSGSGSGTDFTLKISRVEAEDVGVYYCMQHLEYPFTFGGGTKVEIKR
modifications: ASO300 oligonucleotide attached through a cleavable Val-Cit linker (Formula (C)); residue and chain not stated
notes: also called 3A4 (VH3-N54T/Vk4) conjugate; DMPK oligo conjugate
B4: conjugate of humanized anti-TfR Fab 3M12 VH3/Vk2 with DMPK-targeting oligonucleotide ASO300 (Fab, V domains shown)
VH: QVQLQESGPGLVKPSQTLSLTCSVTGYSITSGYYWNWIRQPPGKGLEWMGYITFDGANNYNPSLKNRVSISRDTSKNQFSLKLSSVTAEDTATYYCTRSSYDYDVLDYWGQGTTVTVSS
VL: DIQMTQSPSSLSASVGDRVTITCRASQDISNFLNWYQQKPGQPVKLLIYYTSRLHSGVPSRFSGSGSGTDFTLTISSLQPEDFATYFCQQGHTLPYTFGQGTKLEIKR
modifications: ASO300 oligonucleotide attached through a cleavable Val-Cit linker (Formula (C)); residue and chain not stated
notes: also called 3M12 (VH3/Vk2) conjugate; DMPK oligo conjugate

Numbering of substitutions follows the chain as printed. Names and notes keep the numbering of the source.

As usually defined, the EC50 is the midpoint of the concentration-response curve.

The first assay concerns the target T1, cynomolgus monkey (Macaca fascicularis) …. Briefly: ELISA, Fab-ASO300 conjugate. (In general: An ELISA detects its analyte on a solid surface through an enzyme-linked reagent.)
B1: the midpoint of the response, the EC50, lay at 10.2 nM.

B2 registered an EC50 of 13.9 nM.

In the case of B3, a half-maximal response (EC50) required 5.12 nM.

Molecule B4 displayed an EC50 of 2.26 nM.

For a further assay the target is unchanged. Nature of the assay: ELISA, coated recombinant TfR1, Fab-ASO300 conjugate.
For the molecule B1, the EC50 stood at 10.2 nM.

As to B2, the EC50 came to 3.3 nM.

With B3, the EC50 was determined as 4.7 nM.

In the case of B4, the EC50 is 2.9 nM.
